From patent publication US20230091315A1 (CISBIO BIOASSAYS, published 2023) come the findings set out here.

Assay [1] has as its target T1, human recombinant G-protein alphai1 fused at the N-terminal with a Tag Twin-Strep-tag (TST-G protein alphai1) (human, UniProt B2RSH2 1-354 (mouse entry)).
T1 construct: Purified protein made in Sf9 insect cells; also called G-protein αi1; protein Gαi1
As to the kind of experiment: HTRF (TR-FRET) titration of antibody-d2 on 2.5 nM Twin-Strep-tagged Gαi1 with anti-Twin-Strep-tag-Lumi4 Tb; condition: GDP 10 µM. Here is the method: (§1) These two reagents were prepared in one and the same solution and were preincubated for 30 minutes at room temperature before being distributed in the wells. The antibodies DSV36S-d2, DSV38S-d2 and SC13533-d2 were prepared 4× for final concentrations in the wells between 0.01 and 10 nM depending on the antibodies.
(§2) Moreover, the antibody titration curves obtained make it possible to calculate the affinity (Kd) of these different antibodies for the G-protein αi1. This was carried out using the GraphPad Prism software by applying a “one site specific binding” model to the HTRF data.
Background: TR-FRET usually uses a lanthanide donor and a delayed reading to cut background.

In assay [2] the target is T1, human recombinant G-protein alphai1 …. As to the kind of experiment: HTRF (TR-FRET) titration of antibody-d2 on 2.5 nM Twin-Strep-tagged Gαi1 with anti-Twin-Strep-tag-Lumi4 Tb; condition: Buffer only. Here is the method:
as §1, §2

The target is the same in assay [3]. As to the kind of experiment: HTRF competition on Gαi1 + GTPgS: unlabeled antibody varied against DSV36S-d2 (10 nM), detection with anti-Twin-Strep-tag-Lumi4 Tb. Here is the method: (§3) These two reagents were prepared in one and the same solution and were preincubated for 30 minutes at room temperature before being distributed in the wells. The cold antibodies DSV36S, DSV38S, DSV26S, DSV3S, and DSV39S were prepared 4× for final concentrations in the wells between 0.001 and 1 μM. The antibody DSV36S-d2 was prepared 4× for a final concentration of 10 nM.
(§4) 1) 10 μl of the preincubated mixture of G-protein αi1 +GTPgS was put in each well, 2) 5 μl of the unlabeled antibodies DSV36S, DSV38S, DSV26S, DSV3S, and DSV39S was added to each well, 3) The plates were incubated for 30 minutes at room temperature, 4) 5 μl of the anti Twin-Strep-tag-Lumi4 Tb antibody and of the antibody DSV36S-d2 were added to each well.

The target is the same in assay [4]. As to the kind of experiment: HTRF competition on Gαi1 + GTPgS: unlabeled antibody varied against 36S-d2 (DSV36S-d2, 10 nM), detection with anti-Twin-Strep-tag-Lumi4 Tb. Here is the method:
as §3, §4

Assay [5] shares this target. Briefly: HTRF (TR-FRET) titration of antibody-d2 on 2.5 nM Twin-Strep-tagged Gαi1 with anti-Twin-Strep-tag-Lumi4 Tb; condition: GTP 10 µM as printed (the protocol names GTPgS). Here is the method: as §1, §2

As a reminder, the Kd is the free concentration of one partner at which half of the binding sites on the other are occupied at equilibrium, for simple one-to-one binding.

T1 sequence (B2RSH2 whole entry, the tested form may be a part): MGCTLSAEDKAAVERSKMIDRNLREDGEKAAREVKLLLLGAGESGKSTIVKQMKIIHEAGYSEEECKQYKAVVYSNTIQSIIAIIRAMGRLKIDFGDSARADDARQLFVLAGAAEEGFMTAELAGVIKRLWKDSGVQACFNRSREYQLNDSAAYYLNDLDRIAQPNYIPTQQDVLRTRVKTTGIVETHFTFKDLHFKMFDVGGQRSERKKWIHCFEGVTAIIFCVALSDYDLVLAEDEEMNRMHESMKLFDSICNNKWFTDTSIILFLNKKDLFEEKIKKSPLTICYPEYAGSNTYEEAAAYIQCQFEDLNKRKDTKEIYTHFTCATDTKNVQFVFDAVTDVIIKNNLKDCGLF

B1: antibody DSV36S (antibody, V domains shown)
VH: EVQLQQSGAELVRPGALVKLSCKASGFNIKDYYMHWVKQRPEQGLEWIGWIDPENGNTIYDPKFQGKASITADTSSNTAYLQLSSLTSEDTAVYYCTRGGGYYSDWYFDVWGAGTTVTVSS
VL: QIVLTQSPAIMSASPGEKVTMTCSASSSVSYMHWYQQKSGTSPKRWIYDTSKLASGVPARFSGSGSGTSYSLTISSMEAEDAATYYCQQWSSNPPITFGAGTKLELK
notes: Used unlabeled or labeled with d2 (acceptor) or Lumi4Tb (donor); also called DSV36S-d2; DSV36S-Lumi4Tb
Regarding B1, the Kd in assay [1] was 0.48 nM; in assay [2] it was 0.82 nM; in assay [5], 0.31 nM. Besides, the “IC50 (read off the curve)” value in assay [3] and in assay [4] was ~0.5 nM each time.
